Legend:
target antigen = experiment: BIACORE affinity determination of parent antibodies and DVD-Ig constructs; format: binding; settings: antigen IL-6R, 25° C.
Protocol: The BIACORE assay (Biacore, Inc, Piscataway, N.J.) determines the affinity of antibodies or DVD-Ig with kinetic measurements of on-rate and off-rate constants. […] All chemicals are obtained from Biacore® AB (Uppsala, Sweden) or otherwise from a different source as described in the text. For example, approximately 5000 RU of goat anti-mouse IgG, (Fcγ), fragment specific polyclonal antibody (Pierce Biotechnology Inc, Rockford, Ill.) diluted in 10 mM sodium acetate (pH 4.5) is directly immobilized across a CM5 research grade biosensor chip using a standard amine coupling kit according to manufacturer's instructions and procedures at 25 μg/ml. Unreacted moieties on the biosensor surface are blocked with ethanolamine. Modified carboxymethyl dextran surface in flowcell 2 and 4 is used as a reaction surface. Unmodified carboxymethyl dextran without goat anti-mouse IgG in flow cell 1 and 3 is used as the reference surface. For kinetic analysis, rate equations derived from the 1:1 Langmuir binding model are fitted simultaneously to association and dissociation phases of all eight injections (using global fit analysis) with the use of Biaevaluation 4.0.1 software. Purified antibodies or DVD-Ig are diluted in HEPES-buffered saline for capture across goat anti-mouse IgG specific reaction surfaces. Antibodies or DVD-Ig to be captured as a ligand (25 μg/ml) are injected over reaction matrices at a flow rate of 5 μl/min. The association and dissociation rate constants, kon (M^−1 s^−1) and koff (s^−1) are determined under a continuous flow rate of 25 μl/min. Rate constants are derived by making kinetic binding measurements at different antigen concentrations ranging from 10-200 nM. The equilibrium dissociation constant (M) of the reaction between antibodies or DVD-Igs and the target antigen is then calculated from the kinetic rate constants by the following formula: KD=koff/kon. Binding is recorded as a function of time and kinetic rate constants are calculated. In this assay, on-rates as fast as 10^6 M^−1 s^−1 and off-rates as slow as 10^−6 s^−1 can be measured.

[1] = tested on: PGE2 / human EP4 receptor in HEK293 Gα16 cells; experiment: EP4 bioassay (Ca++ flux, neutralization of PGE2); format: cell-based; settings: PGE2 VD in C-terminal position; EP4 bioassay, Ca++ flux; read-out: C-terminal VD PGE2 Neutralization EC50
Procedure, shortened: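 Ca++ flux (FLIPR) in HEK293 Gα16 cells stably expressing human EP4, loaded with Ca++-sensitive dye for 90 min. PGE2, alone or pre-incubated with anti-PGE2 antibody, DVD-Ig or isotype control, was added in FLIPR buffer (HBSS, 20 mM HEPES, 0.1% BSA, 2.5 mM probenecid). EC50 derived from PGE2 dose-response.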

B1: DVD152: DVD-Ig construct listed in Table 4 (antibody)
VH: EVQLQESGPGLVRPSQTLSLTCTVSGYSITSDHAWSWVRQPPGRGLEWIGYISYSGITTYNPSLKSRVTMLRDTSKNQFSLRLSSVTAADTAVYYCARSLARTTAMDYWGQGSLVTVSSASTKGPEVQLVQSGAEVKKPGASVKVSCKASGYTFTKYWLGWVRQAPGQGLEWMGDIYPGYDYTHYNEKFKDRVTLTTDTSTSTAYMELRSLRSDDTAVYYCARSDGSSTYWGQGTLVTVSS
VL: DIQMTQSPSSLSASVGDRVTITCRASQDISSYLNWYQQKPGKAPKLLIYYTSRLHSGVPSRFSGSGSGTDFTFTISSLQPEDIATYYCQQGNTLPYTFGQGTKVEIKRTVAAPDVLMTQTPLSLPVTPGEPASISCTSSQNIVHSNGNTYLEWYLQKPGQSPQLLIYKVSNRFSGVPDRFSGSGSGTDFTLKISRVEAEDVGVYYCFQVSHVPYTFGGGTKVEIKR
Q: What does the source list for B1?
A: koff (target antigen; IL-6R binding by C-terminal domain): 0.00015 s⁻¹; koff (target antigen; IL-6R binding by N-terminal domain): 0.000115 s⁻¹; EC50 [1]: 25 pM

Reference: US8822645B2, “Prostaglandin E2 dual variable domain immunoglobulins and uses thereof” (AbbVie Inc., priority 2008, dated 2014)
